Assay results: the supplement of paper PMC7125110
± gives the standard error. Variants at the floor of the assay were thinned out.

B1: glmS ribozyme (parent)
chain: AUAAAAGCGCCAGAACUACAGAAAUGUAGUUGACGAGGAGGAGGUUUAUCGAAUUUUCGGCGGAUGCCUCCAAA

What was measured:
Details in all cases: with glucosamine-6-phosphate
glucosamine-6-phosphate [1] = variants of: B1; experiment: self-cleavage kobs at 640 uM GlcN6P; higher = faster cleavage; RNA array
Method in brief: (§1)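 Sequenced MiSeq chips were the platform: E. coli RNA polymerase transcribed barcoded ribozyme variants on them in situ, and a hybridised Cy3 probe tracked these at 37 °C. After glucosamine-6-phosphate (40 μM to 10 mM) in HEPES/KCl/Mg(OAc)2 buffer was flowed in, tiles were imaged over ~14 h. Signals normalised to baseline and to non-cleaving reference variants were reduced to per-tile medians and fit to one- or two-exponential decays to obtain kobs. kcat and KM were derived through weighted Michaelis–Menten fits across concentrations.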

glucosamine-6-phosphate [2] = variants of: B1; experiment: self-cleavage kobs at 2500 uM GlcN6P; higher = faster cleavage; RNA array
Method in brief: as §1

glucosamine-6-phosphate [3] = variants of: B1; experiment: self-cleavage kobs at 10000 uM GlcN6P; higher = faster cleavage; RNA array
Method in brief: as §1

Row | Variant | self-cleavage kobs at 640 uM GlcN6P (glucosamine-6-phosphate [1]) | self-cleavage kobs at 2500 uM GlcN6P (glucosamine-6-phosphate [2]) | self-cleavage kobs at 10000 uM GlcN6P (glucosamine-6-phosphate [3])
1 | AUAAAAUCGCCAGCACUACAGAAAUGUAGUUGACGACGAGGAGGUUUAUCGAAUUUUCGGCGGAUGCCUCCAAA | < 1e-05 s⁻¹ | < 1e-05 s⁻¹ | 
2 | AUAAAACCGCCAGUACUACAGAAAUGUAGUUGACGAGGAGGAGGUUUAUCGAAUUAUCGGCGGAUGCCUCCAAA | < 1e-05 s⁻¹ | < 1e-05 s⁻¹ | 
3 | AUAAAUGCGCCAGAACUACAGAAAUGUAGUUGACGAGGAGGAGGUUUAUCGAAUUUUCGGCGGAUGCCGCCAAA | 0.000103 ± 2.3e-05 s⁻¹ | 4.72e-05 ± 1.4e-05 s⁻¹ | 
4 | AUAAAAACGUCAGAACUACAGAAAUGUAGUUGACGAGGAGGAGGUUUAUCGAAUUUUCGGCGGAUGGCUCCAAA | 8.24e-05 ± 3.5e-05 s⁻¹ |  | 
5 | AUAAAACCGCCAGAACUACAGAAAUGUAGUUGACGAGGAGGAGGUUUAUCGAAUUUUCGGCGGAUGCCUCAAAA | < 1e-05 s⁻¹ |  | < 1e-05 s⁻¹
6 | AUAAAACAGCCAGAACUACAGAAAUGUAGUUGACGAGGAGGUGGUUUAUCGAAUUUUCGGCGGAUGCCUCCAAA | < 1e-05 s⁻¹ |  | 
7 | AUAAAAACGCCAGAACUACAGAAAUGUAGUUGAAGAGGAGGAAGUUUAUCGAAUUUUCGGCGGAUUCCGCCAAA | < 1e-05 s⁻¹ | < 1e-05 s⁻¹ | 
8 | AUAAAAACGCCAGAACUACAGAAAUGUAGUUGACGAGGAGGAGGUUUAUCGAAUUGUCGGCGGAUGCCACCAAA | 0.00091 ± 0.00042 s⁻¹ |  | 
9 | AUAAAUGCGCCAGAACUACAGAAAUGUAGUUGACGAGGAGGAGGUUUAUCGAAUUGUCGGCGGAAGACUCCAAA | 9.86e-05 ± 3e-05 s⁻¹ | 0.000119 ± 2.9e-05 s⁻¹ | 
10 | AUAAAACCGACAAAACUACAGAAAUGUAGUUGCCGAGGAGGAGGUUUAUCGAAUUUUCGGCGGAUGCCUCCAAA | < 1e-05 s⁻¹ | < 1e-05 s⁻¹ | < 1e-05 s⁻¹
11 | AUAAAACCGCCAGACCUACAGAAAUGUAGUUGACGAGGAGGAGGUUUAUCUAAUUUUCGGAGGAUUCCUCCAAA | < 1e-05 s⁻¹ |  | 
12 | AUAAAACAGCCAGAACUACAGAAAUGUAGCUGCCGAGGAGGAGGUUUAUCGAAUUUUCGGCGGAUGCCUCCAAA | < 1e-05 s⁻¹ | < 1e-05 s⁻¹ | < 1e-05 s⁻¹
13 | AUAAAACCGCCAGACCUACAGAAAUGUAGUUGACGAGGUGGCGGUUUAUCGAAUUUACGGCGGAUGCCUCCAAA | < 1e-05 s⁻¹ | < 1e-05 s⁻¹ | 
14 | AUAAAAACGCCAGAUCUACAGAAAUGUAGUUGGCGUGUAGGAGGUUUAUCGAAUUUCCGGCGGAUGCCUCCAAA | < 1e-05 s⁻¹ | < 1e-05 s⁻¹ | 
15 | AUAAAACCGCCAGAACUACAGAAAUGUAGUUGACGAGGAGGAUGUUUAUCGACUUUUCGGCGGAUUCCUCCAAA | < 1e-05 s⁻¹ |  | 
16 | AUAAAACCGCCAGAUCUACAGAAAUGUAGUUGACGAGGAGGAGGAUUAUCGAAUUUUCGGCGGAUGCCUCCAAA | < 1e-05 s⁻¹ | < 1e-05 s⁻¹ | 
17 | AUAAAACCGCCAGAUCUACAGAAAUGUAGUUGACGAGGAGGAAGUUUGUCGAAUUUUCGGCGGAUGACUCCAAA | < 1e-05 s⁻¹ | < 1e-05 s⁻¹ | 
18 | AUAAAUGCGCCAGAACUACAGAAAUGUAGUUGACGAGGAGGAUGUUUAUCGAAUUUUCGGCGGAUGCCUGCAAA | < 1e-05 s⁻¹ |  | 
19 | AUAAAUGCGCCAGAACUACAGAAAUGUAGUUGACGAGGAGGAGGUUUACCGAAAUUUCGGCGGUUGCUUCCAAA | < 1e-05 s⁻¹ |  | 
20 | AUAAAACCGCCAGAACUACAGAAAUGUAGUUGACGAGGAGGAGGGUUAUCGAUUUUUCGGCGGGUGCCUCCAAA | < 1e-05 s⁻¹ |  | 
21 | AUAAAAACGCCAGAACUACAGAAAUGUAGUUGACGAGGAGGAAGUUUAUCGAAUAUUCGUCGGAUGUCUGCAAA | < 1e-05 s⁻¹ |  | 
22 | AUAAAAACGCCAGAACUACAGAAAUGUAGUUGACGAUGAGGAGGUGUAUCGAAUCUUAGGCGGAUGCCUCCAAA | < 1e-05 s⁻¹ |  | 
23 | AUAAAAACUCCAGAACUACAGAAAUGUAGUUGACGAGGAGGAGGUUUAUCGAAUUUUCGGCGGAUGCUUCCAAA | < 1e-05 s⁻¹ |  | 

Row | Variant | self-cleavage kobs at 640 uM GlcN6P (glucosamine-6-phosphate [1]) | self-cleavage kobs at 2500 uM GlcN6P (glucosamine-6-phosphate [2]) | self-cleavage kobs at 10000 uM GlcN6P (glucosamine-6-phosphate [3])
24 | AUAAAUGCGCCAGAACUACAGAAAUGUAGUUGACGAGGAGAAGGUUUAUCGAAUUUUAGGCGGAUGCCUCCAAA | < 1e-05 s⁻¹ |  | 
25 | AUAAAUGCGCCAGAACUACAGAAAUGUAGUUGACGAGGAGGAGUUUUAUCUAAAUUUCGGCGGAUGCCUCCAAA | < 1e-05 s⁻¹ | < 1e-05 s⁻¹ | 
26 | AUAAAAACGCCAGAACUACAGAAAUGUAGUUGACGAGGAUGAGGGUUAUCGAAUUUUGGGCGGAUGCCUCCAAA | < 1e-05 s⁻¹ | < 1e-05 s⁻¹ | 
27 | AUAAAUGCGCCAGAACUACAGAAAUGUAGUUGACGAGGAGGAGGUUUAUCGAAAUUUCGGCGGAUGCCUCCAAA | 9.76e-05 ± 2e-05 s⁻¹ | 0.000837 ± 0.00027 s⁻¹ | 0.000256 ± 4.4e-05 s⁻¹
28 | AUAAAAACGCCAGGACUACAGAAAUGUAUUUGACGAGGAGGAGGUUUAUCGAAUUUUCGGCGGAUGCCUGCAAA | < 1e-05 s⁻¹ | < 1e-05 s⁻¹ | 
29 | AUAAAAACGCCAGAACUACAGAAAUGUAGUUGACGAGGAGGAGAUCUUUCGAAUUUUCGGCGGAUGCCUCCAAA | < 1e-05 s⁻¹ | < 1e-05 s⁻¹ | 
30 | AUAAAUGCGCCAGAACUACAGAAAUGUAGUUGACGAGGAGGAGGUUUAUCCAAUUAUCGGCGGAUGCCGACAAA | 0.000269 ± 8e-05 s⁻¹ |  | 
31 | AUAAAACGCCCAGAACUAAAGAAAUGUAGUUGACGAGGAGGAGGUUUAUCGAAUUUUCGGAGGAUGCCUCCAAA | < 1e-05 s⁻¹ | < 1e-05 s⁻¹ | 
32 | AUAAAAACGCCAGAACUACAGAAAUGUAGUUGACGAGGAGGAGCUUUAUUGAAUUUUCGGCGGAUGCCUCCAAA | < 1e-05 s⁻¹ | < 1e-05 s⁻¹ | 
33 | AUAAAACCGCCAGAACUACAGAAAUGUAGGUGACGAGGAGGAGGUUUAUCGAAUUUUCGGCGGGUGCCUCCAAA | < 1e-05 s⁻¹ |  | 
34 | AUAAAAACGCCAGAACUACAGAAAUGUAGUUGACGAGGUGGAGGUUUCUCGAAUUUUCGGCGGAUGCCUCCAAA | < 1e-05 s⁻¹ | < 1e-05 s⁻¹ | 
35 | AUAAAACCGCCAGAACUACAGAAAUGUAGUUGACGCGGAGGAGGUUUAUCGAAUUAUCGGCGGAUGCCUCCAAA | < 1e-05 s⁻¹ |  | 
36 | AUAAAAACGCCAGAACUACAGAAAUGUAGUUGACGAGGAGGAGGUUUAUCGAAUUCUCGGCGGAUGCUUCCAAA | < 1e-05 s⁻¹ |  | < 1e-05 s⁻¹
37 | AUAAAACCGCCGGAACUACAGAAAUGUAGUUGACGCGGAGGAGGUUUAUCGAAUUUUCGGCGGAUGCCUCCAAA | < 1e-05 s⁻¹ |  | 
38 | AUAAAACCGUCAGAACUACAGAAAUGUAGUUGACGAGGAGGAUGUUUAUCGAAUUUUCGGCGGAUGCCUCCAAA | < 1e-05 s⁻¹ |  | 
39 | AUAAAAUCGCCAGGACUACAGAAAUGUAGUUGACGAGGAUGAGGUUUAUCGAAUUUUCGGCGGAUGCCUCCAAA | < 1e-05 s⁻¹ | < 1e-05 s⁻¹ | 
40 | AUAAAAACGCCAGAUCUACAGAAAUGUAGUUGACGAGGAGGAGGUUUAUCGAGUUUUCGGCGGAUGCCUCCAAA | < 1e-05 s⁻¹ |  | 
41 | AUAAAAACGCCAGAACUACAGAAAUGUAGUUGACGAGGAGGAGGUUUGUCGAAUUUUCGGCGGUUGCCUUCAAA | < 1e-05 s⁻¹ |  | 
42 | AUAAAACCGCCAGAACUACAGAAAUGUAGUUGACGAGGAGGAGGUUUAUCGAAUUUUCGGCGGCUGCCUCCAAA | < 1e-05 s⁻¹ |  | 
43 | AUAAAACCGCCAGAACUACAGAAAUGUAGUUGACGAGGAGGAGGUUUAUCGAAUUUUCGGAGCAUGCCUCCAAA | < 1e-05 s⁻¹ |  | 
44 | AUAAAACCGCCAGAACUACAGAAAUGUAGUUGACGAGGAUGAGGUUUAUCGAAUUUUCGGCGGAUGCCUCCAAA | < 1e-05 s⁻¹ | < 1e-05 s⁻¹ | < 1e-05 s⁻¹
45 | AUAAAACCGCCAGCACUACAGAAAUGUAGUUGACGAGGAGGAGAUUUAUCGAAUUUUCGGCGAAUGCCUCCAAA | < 1e-05 s⁻¹ | < 1e-05 s⁻¹ | 
46 | AUAAAACCGCCAGAACUACAGAAAUGUAGUUGACGAGGAGGAGGUUUAUCGAAUUUUCCGCGGAUCCCUCCAAA | < 1e-05 s⁻¹ |  | < 1e-05 s⁻¹
